Test results: FireProtDB (doi:10.1073/pnas.84.13.4441)

Details: Escherichia coli (strain K12), 25 °C, GdnHCl, CD, Potassium phosphate 20 mM, reversible: yes, whole UniProt chain shown

B1: Tryptophan synthase alpha chain wild type, P0A877 (protein)
chain: MERYESLFAQLKERKEGAFVPFVTLGDPGIEQSLKIIDTLIEAGADALELGIPFSDPLADGPTIQNATLRAFAAGVTPAQCFEMLALIRQKHPTIPIGLLMYANLVFNKGIDEFYAQCEKVGVDSVLVADVPVEESAPFRQAALRHNVAPIFICPPNADDDLLRQIASYGRGYTYLLSRAGVTGAENRAALPLNHLVAKLKEYNAAPPLQGFGISAPDQVKAAIDAGAAGAISGSAIVKIIEQHINEPEKMLAALKVFVQPMKAATRS
B1 showed an unfolding free energy (pH 7) of 18.2 kcal/mol and an unfolding free energy (pH 9) of 18 kcal/mol.
